According to patent US20220259593A1, “CONTROL OF MAMMALIAN GENE DOSAGE USING CRISPR” (The Regents of the University of California, priority 2019, published 2022):

B1: cr584 (nucleic acid)
guide: GTTTAAGAGCTAAGCTGGAAACAGCATAGCAAGTTTAAATATGGCTAGTCCTTTATCAACTTGAAAAAGTGGCACCGAGTCGGTGCT
modifications: listed as DNA, chemistry not fully specified
B2: cr615 (nucleic acid)
guide: GTTTAAGAGCTAAGCTGGAAACAGCATAGCAAGTTTAAATAAGGCTAGTCCGTTATCAACTTGAAAAAGTGCGTGCGAGTCGGAGGT
modifications: listed as DNA, chemistry not fully specified
B3: cr272 (nucleic acid)
guide: GTTTAAGAGCTAAGCTGGAAACAGCATAGCCACTTTAAATAAGGCTAGTCCGTTATCAACTTGAAAAAGTGGCACCGAGTCGGTGCT
modifications: listed as DNA, chemistry not fully specified
B4: cr744 (nucleic acid)
guide: GTTTAAGAGCTAAGCTGGAAACAGCATAGCAAGATTAAATCAGGCTAGTCCGTTATCAACTTGTAAAAGTGGCACCGAGTCGGTGCT
modifications: listed as DNA, chemistry not fully specified
B5: cr100 (nucleic acid)
guide: GTTTAAGAGCTAAGCTGGAAACAGCATAGCAAGTTTAAATGAGGCTAGCCCGTTATCAACTTGAAAAAGTGGCACCGAGTCGGTGCT
modifications: listed as DNA, chemistry not fully specified
B6: cr902 (nucleic acid)
guide: GTTTAAGAGCTAAGCTGGAAACAGCATAGCAAGTTTAAATAAGGCTAGTCCGTTATCAACTTGAAAAAGTGACACCGAGTCGGTGTT
modifications: listed as DNA, chemistry not fully specified
B7: cr094 (nucleic acid)
guide: GATTTAGAGCTAAGCTGGAAACAGCATAGCAAGTTTAAATAAGGCTAGTCCGTTATCAACTTGAAAAAGTGGCACCGAGTCGGTGCT
modifications: listed as DNA, chemistry not fully specified
B8: cr536 (nucleic acid)
guide: GTTTAAGAGCTAAGCTGGAAACAGCATAGCAACTTTAAATAAGGATATTCCGTTATCAACTTGAAAAAGTGGCACCGAGTCGGTGCT
modifications: listed as DNA, chemistry not fully specified
B9: cr981 (nucleic acid)
guide: GTTTAAGAGCTAAGCTGGAAACAGCATAGCAAGTTTAAATAACGCTAGTCGGTTATCAACTGGAAACAGTGGCACCGAGTCGGTGCT
modifications: listed as DNA, chemistry not fully specified
B10: cr266 (nucleic acid)
guide: GTTTAAGAGCTAAGCTGGAAACAGCATGGCAAGGTTAAATAAGGCGAGTCCGTTATCAACTTGAAAAAGTGGCACCGAGTCGGTGCT
modifications: listed as DNA, chemistry not fully specified
B11: cr849 (nucleic acid)
guide: GTTTAAGAGCTAAGCTGGAAACAGCATAGCAACGTTAAATAAGGCTAGTCCGTTATCAACTTGAAAAAGTGGCACCGAGTCGGTGCT
modifications: listed as DNA, chemistry not fully specified
B12: cr297 (nucleic acid)
guide: GTTTAAGAGCTAAGCTGGAAACAGCATAGCAAGTTTAAATAAGGCTAGGCCGTTATCAACTTGAAAAAGTCGCACCGAGTCGGTGCT
modifications: listed as DNA, chemistry not fully specified
B13: cr303 (nucleic acid)
guide: GTTTAAGAGCTAAGCTGGAAACAGCATAGCAACTTTAAATAAGGCTTGTCCGTTATCAACTTGAAAAAGTTGCACCGAGTCGGTGCT
modifications: listed as DNA, chemistry not fully specified
B14: cr833 (nucleic acid)
guide: GTTTAAGAGCTAAGCTGGAAACAGCATCGCAACTTTAAATAAGGCTAGTCCGTTATCAACTTGAAAAAGTCGCACCGAGTCGGTGCT
modifications: listed as DNA, chemistry not fully specified
B15: cr109 (nucleic acid)
guide: GTTTAAGAGCTAAGCTGGAAACAGCATAGCAAGTTTAAATAAGGCTAGTCCGTTATCAACAAGAAATTGTGGCACCGAGTCGGTGCT
modifications: listed as DNA, chemistry not fully specified
B16: cr472 (nucleic acid)
guide: GTTTAAGAGCTAAGCTGGAAACAGCATAGCAAGGTTAAATAAGGTTAATCCGTTATCAACTTGAAAAAGTGGCACCGAGTCGGTGCT
modifications: listed as DNA, chemistry not fully specified
B17: cr753 (nucleic acid)
guide: GTTTAAGAGCTAAGCTGGAAACAGCATAGCAAGTTTAAATAACGCTAGTCGGTTATCATCTTGAAAAAGAGGAACCGAGTCGGTTCT
modifications: listed as DNA, chemistry not fully specified
B18: cr537 (nucleic acid)
guide: GTTTAAGAGCTAAGCTGGAAACAGCATAGCAAGCTTAAATTAGGCTAGTCCGTTATCAACTTGAAAAAGTGGCACCGAGTCGGTGCT
modifications: listed as DNA, chemistry not fully specified
B19: cr845 (nucleic acid)
guide: GTTTAAGAGCTAAGCTGGAAACAGCATAGCAAGGTTAAATAAAGCTAGTCTGTTATCAACTTGAAAAAGTGGCACCGAGTCGGTGCT
modifications: listed as DNA, chemistry not fully specified
B20: cr070 (nucleic acid)
guide: GTTTAACGGCTAAGCTGGAAACAGCATAGCAAGTTTAAATAAGGCTAGTCCGTTATCAACTTGAAAAAGTGGCACCGAGTCGGTGCT
modifications: listed as DNA, chemistry not fully specified
B21: cr203 (nucleic acid)
guide: GTTTAAGAGCTAAGCTGGAAACAGCATAGCAACTTTAAATAAGGCTAGTCCTTTATCAACTTGAAAAAGTGGCACCGAGTCGGTGCT
modifications: listed as DNA, chemistry not fully specified
B22: cr060 (nucleic acid)
guide: GTGCAAGAGCTAAGCTGGAAACAGCATAGCAAGTTTAAATAAGGCTAGTCCGTTATCAACTTGAAAAAGTGGCACCGAGTCGGTGCT
modifications: listed as DNA, chemistry not fully specified
B23: cr469 (nucleic acid)
guide: GTTTAAGAGCTAAGCTGGAAACAGCATAGCAAGTTTAAATAAGGCTAGTCCCTTATCAACTTGAAAAAGTGGCACCGAGTCGGTGCT
modifications: listed as DNA, chemistry not fully specified
B24: cr245 (nucleic acid)
guide: GTTTAAGAGCTAAGCTGGAAACAGCATAGCAAGGTTAAATAAGACTAGTTCGTTATCAACTTGAAAAAGTGGCACCGAGTCGGTGCT
modifications: listed as DNA, chemistry not fully specified
B25: cr857 (nucleic acid)
guide: GTTTAAGAGCTAAGCTGGAAACAGCATAGCAAGTTTAAATTAGGCTAGTCCGTTATCAACTTGAAAAAGTCGCACCGAGCCGGTGCT
modifications: listed as DNA, chemistry not fully specified
B26: cr049 (nucleic acid)
guide: GTGTTAGAGCTAAGCTGGAAACAGCATAGCAAGTTTAAATAAGGCTAGTCCGTTATCAACTTGAAAAAGTGGCACCGAGTCGGTGCT
modifications: listed as DNA, chemistry not fully specified
B27: cr400 (nucleic acid)
guide: GTTTAAGAGCTAAGCTGGAAACAGCATAGCAAGGTTAAATAAGGATATTCCGTTATCAACTTGAAAAAGTGGCACCGAGTCGGTGCT
modifications: listed as DNA, chemistry not fully specified
B28: cr660 (nucleic acid)
guide: GTTTAAGAGCTAAGCTGGAAACAGCATAGCAAGTTTAAATAATGCTAGTCCGTTATCAACTTGAAAAAGTGGCACCGAGTCGGTGCT
modifications: listed as DNA, chemistry not fully specified
B29: cr309 (nucleic acid)
guide: GTTTAAGAGCTAAGCTGGAAACAGCATAGCAAGGTTAAATAAGGCTAGGCCGTTATCAACTTGAAAAAGTGGCACCGAGTCGGTGCT
modifications: listed as DNA, chemistry not fully specified
B30: cr057 (nucleic acid)
guide: GCTCAAGAGCTAAGCTGGAAACAGCATAGCAAGTTTAAATAAGGCTAGTCCGTTATCAACTTGAAAAAGTGGCACCGAGTCGGTGCT
modifications: listed as DNA, chemistry not fully specified

These molecules were tested on K562 CRISPRi cells (assay: Constant region variant library pooled growth screen, K562). Details: sgRNA constant region variant; activity relative to unmodified constant region cr995; mean CRISPRi activity.
Type: cell-based, human
Outline: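 Cells were selected with puromycin for 2 days and then kept in RPMI-1640 spinner cultures, with duplicates handled separately. Targeting sequences comprised 3 sgRNAs per essential gene for 10 genes plus six non-targeting controls. Activities were normalized against pairing with the unmodified scaffold.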
In the case of B1, the Mean relative activity is reported as 0.005912.
In the case of B2, the Mean relative activity is reported as 0.006333.
In the case of B3, the Mean relative activity is reported as 0.00638.
With B4 the Mean relative activity was 0.006349.
In the case of B5, the Mean relative activity is reported as 0.005923.

Same assay, conditions: sgRNA constant region variants; activity relative to the original, un-modified constant region cr995
B6 showed a Mean relative activity of 1.031.
Molecule B7 has a Mean relative activity of 0.004414.
B8 showed a Mean relative activity of 0.003951.
B9 showed a Mean relative activity of 0.003266.
Work on B10 yielded a Mean relative activity of 0.005552.
For B11, the Mean relative activity was 0.004706.
Molecule B12 has a Mean relative activity of 0.004872.
B13 was tested, and the Mean relative activity was 0.003573.
B14 was tested, and the Mean relative activity was 0.004215.
Work on B15 yielded a Mean relative activity of 1.031.
Molecule B16 has a Mean relative activity of 0.004917.
For B17, the Mean relative activity was 0.004302.
Molecule B18 has a Mean relative activity of 0.005276.
With B19 the Mean relative activity was 0.004644.
Molecule B20 has a Mean relative activity of 1.03.
Molecule B21 has a Mean relative activity of 0.004333.
B22 gave a Mean relative activity of 0.005182.
With B23 the Mean relative activity was 0.003211.
For B24, the Mean relative activity was 0.00372.
With B25 the Mean relative activity was 0.004274.
B26 gave a Mean relative activity of 0.003203.
Molecule B27 has a Mean relative activity of 0.00451.
Work on B28 yielded a Mean relative activity of 0.004102.
Molecule B29 has a Mean relative activity of 0.005045.
B30 was tested, and the Mean relative activity was 0.005757.
